Data reported in the Human Domainome abundance scans (Beltran et al. 2025).
± gives the uncertainty stated by the source.

B1: Far upstream element-binding protein 3, residues 75 to 150; numbered along this chain, Q96I24 (parent)
chain: RTVITEEFKVPDKMVGFIIGRGGEQISRIQAESGCKIQIASESSGIPERPCVLTGTPESIEQAKRLLGQIVDRCRN

Variants of: B1
Experiment: abundance fitness (aPCA) (normalised: wild type 0, dead -1); higher = more abundant; growth selection in yeast, the domain comes from the species named
Settings: Homo sapiens

Q: For RTVITEEFKVPDKMVGFIIGRGGEQISRIQAESGCKIQIASESSGIPERPCVLTGTGESIEQAKRLLGQIVDRCRN [P57G], which abundance fitness is on record?
A: -0.113 ± 0.032

Q: For RTVITEEFKVPDKMVGFIIGRGGEQISRIQAESGCKIQIASESSGIPERPCVLTGTAESIEQAKRLLGQIVDRCRN [P57A], which abundance fitness is on record?
A: -0.013 ± 0.038

Q: Which abundance fitness does the source give for RTVITEEFKVPDKMVGFIIGRGGEQISRIQAESGCKIQIASESSGIPERPCVLTGTKESIEQAKRLLGQIVDRCRN [P57K] here?
A: -0.009 ± 0.056

Q: Which abundance fitness does the source give for RTVITEEFKVPDKMVGFIIGRGGEQISRIQAESGCKIQIASESSGIPERPCVLTGTHESIEQAKRLLGQIVDRCRN [P57H] here?
A: -0.096 ± 0.08

Q: Which abundance fitness does the source give for RTVITEEFKVPDKMVGFIIGRGGEQISRIQAESGCKIQIASESSGIPERPCVLTGTIESIEQAKRLLGQIVDRCRN [P57I] here?
A: -0.131 ± 0.1

Q: Which abundance fitness does the source give for RTVITEEFKVPDKMVGFIIGRGGEQISRIQAESGCKIQIASESSGIPERPCVLTGTLESIEQAKRLLGQIVDRCRN [P57L] here?
A: -0.112 ± 0.04

Q: Which abundance fitness does the source give for RTVITEEFKVPDKMVGFIIGRGGEQISRIQAESGCKIQIASESSGIPERPCVLDGTPESIEQAKRLLGQIVDRCRN [T54D] here?
A: -0.187 ± 0.077

Q: With RTVITEEFKVPDKMVGFIIGRGGEQISRIQAESGCKIQIASESSGIPERPCVLNGTPESIEQAKRLLGQIVDRCRN [T54N] as the variant, how does the abundance fitness read?
A: -0.1 ± 0.075

Q: Which abundance fitness does the source give for RTVITEEFKVPDKMVGFIIGRGGEQISRIQAESGCKIQIASESSGIPERPCVLGGTPESIEQAKRLLGQIVDRCRN [T54G] here?
A: -0.512 ± 0.041

Q: Which abundance fitness does the source give for RTVITEEFKVPDKMVGFIIGRGGEQISRIQAESGCKIQIASESSGIPERPCVLHGTPESIEQAKRLLGQIVDRCRN [T54H] here?
A: -0.01 ± 0.079

Q: For RTVITEEFKVPDKMVGFIIGRGGEQISRIQAESGCKIQIASESSGIPERPCVLKGTPESIEQAKRLLGQIVDRCRN [T54K], which abundance fitness is on record?
A: -0.033 ± 0.051

Q: Which abundance fitness does the source give for RTVITEEFKVPDKMVGFIIGRGGEQISRIQAESGCKIQIASESSGIPERPCVLAGTPESIEQAKRLLGQIVDRCRN [T54A] here?
A: -0.11 ± 0.046

Q: For RTVITEEFKVPDKMVGFIIGRGGEQISRIQAESGCKIQIASESSGIPERPCVLIGTPESIEQAKRLLGQIVDRCRN [T54I], which abundance fitness is on record?
A: -0.065 ± 0.12

Q: For RTVITEEFKVPDKMVGFIIGRGGEQISRIQAESGCKIQIASESSGIPERPCVLCGTPESIEQAKRLLGQIVDRCRN [T54C], which abundance fitness is on record?
A: -0.187 ± 0.066

Q: For RTVITEEFKVPDKMVGFIIGRGGEQISRIQAESGCKIQIASESSGIPERPCVLFGTPESIEQAKRLLGQIVDRCRN [T54F], which abundance fitness is on record?
A: -0.378 ± 0.23

Q: For RTVITEEFKVPDKMVGFIIGRGGEQISRIQAESGCKIQIASESSGIPERPCVLEGTPESIEQAKRLLGQIVDRCRN [T54E], which abundance fitness is on record?
A: -0.071 ± 0.05

Q: For RTVITEEFKVPDKMVGFIIGRGGEQISRIQAESGCKIQIASESSGIPERPCVLSGTPESIEQAKRLLGQIVDRCRN [T54S], which abundance fitness is on record?
A: -0.078 ± 0.045

Q: For RTVITEEFKVPDKMVGFIIGRGGEQISRIQAESGCKIQIASESSGIPERPCVLWGTPESIEQAKRLLGQIVDRCRN [T54W], which abundance fitness is on record?
A: -0.269 ± 0.051

Q: Which abundance fitness does the source give for RTVITEEFKVPDKMVGFIIGRGGEQISRIQAESGCKIQIASESSGIPERPCVLRGTPESIEQAKRLLGQIVDRCRN [T54R] here?
A: -0.018 ± 0.034

Q: With RTVITEEFKVPDKMVGFIIGRGGEQISRIQAESGCKIQIASESSGIPERPCVLLGTPESIEQAKRLLGQIVDRCRN [T54L] as the variant, how does the abundance fitness read?
A: -0.129 ± 0.048

Q: For RTVITEEFKVPDKMVGFIIGRGGEQISRIQAESGCKIQIASESSGIPERPCVLVGTPESIEQAKRLLGQIVDRCRN [T54V], which abundance fitness is on record?
A: -0.044 ± 0.041

Q: For RTVITEEFKVPDKMVGFIIGRGGEQISRIQAESGCKIQIASESSGIPERPCVLMGTPESIEQAKRLLGQIVDRCRN [T54M], which abundance fitness is on record?
A: -0.077 ± 0.05

Q: For RTVITEEFKVPDKMVGFIIGRGGEQISRIQAESGCKIQIASESSGIPERPCVLPGTPESIEQAKRLLGQIVDRCRN [T54P], which abundance fitness is on record?
A: -1.15 ± 0.12

Q: With RTVITEEFKVPDKMVGFIIGRGGEQISRIQAESGCKIQIASESSGIPERPCVLYGTPESIEQAKRLLGQIVDRCRN [T54Y] as the variant, how does the abundance fitness read?
A: -0.102 ± 0.071

Q: For RTVITEEFKVPDKMVGFIIGRGGEQISRIQAESGCKIQIASESSGIPERPCVVTGTPESIEQAKRLLGQIVDRCRN [L53V], which abundance fitness is on record?
A: -0.227 ± 0.033

Q: Which abundance fitness does the source give for RTVITEEFKVPDKMVGFIIGRGGEQISRIQAESGCKIQIASESSGIPERPCVQTGTPESIEQAKRLLGQIVDRCRN [L53Q] here?
A: -1.13 ± 0.12

Q: For RTVITEEFKVPDKMVGFIIGRGGEQISRIQAESGCKIQIASESSGIPERPCVPTGTPESIEQAKRLLGQIVDRCRN [L53P], which abundance fitness is on record?
A: -1.32 ± 0.17

Q: Which abundance fitness does the source give for RTVITEEFKVPDKMVGFIIGRGGEQISRIQAESGCKIQIASESSGIPERPCVTTGTPESIEQAKRLLGQIVDRCRN [L53T] here?
A: -0.94 ± 0.077

Q: For RTVITEEFKVPDKMVGFIIGRGGEQISRIQAESGCKIQIASESSGIPERPCVWTGTPESIEQAKRLLGQIVDRCRN [L53W], which abundance fitness is on record?
A: -1.42 ± 0.13

Q: Which abundance fitness does the source give for RTVITEEFKVPDKMVGFIIGRGGEQISRIQAESGCKIQIASESSGIPERPCVHTGTPESIEQAKRLLGQIVDRCRN [L53H] here?
A: -1.09 ± 0.35

Q: For RTVITEEFKVPDKMVGFIIGRGGEQISRIQAESGCKIQIASESSGIPERPCVITGTPESIEQAKRLLGQIVDRCRN [L53I], which abundance fitness is on record?
A: -0.016 ± 0.077

Q: Which abundance fitness does the source give for RTVITEEFKVPDKMVGFIIGRGGEQISRIQAESGCKIQIASESSGIPERPCVRTGTPESIEQAKRLLGQIVDRCRN [L53R] here?
A: -1.25 ± 0.066

Q: Which abundance fitness does the source give for RTVITEEFKVPDKMVGFIIGRGGEQISRIQAESGCKIQIASESSGIPERPCVGTGTPESIEQAKRLLGQIVDRCRN [L53G] here?
A: -0.971 ± 0.044

Q: For RTVITEEFKVPDKMVGFIIGRGGEQISRIQAESGCKIQIASESSGIPERPCVMTGTPESIEQAKRLLGQIVDRCRN [L53M], which abundance fitness is on record?
A: -0.134 ± 0.045

Q: For RTVITEEFKVPDKMVGFIIGRGGEQISRIQAESGCKIQIASESSGIPERPCVKTGTPESIEQAKRLLGQIVDRCRN [L53K], which abundance fitness is on record?
A: -1.12 ± 0.1

Q: With RTVITEEFKVPDKMVGFIIGRGGEQISRIQAESGCKIQIASESSGIPERPCVSTGTPESIEQAKRLLGQIVDRCRN [L53S] as the variant, how does the abundance fitness read?
A: -0.838 ± 0.065
